# Results reported in doi:10.1101/2021.09.03.458953.
# Where two headings read alike, the source gives them in different places.
# What was measured:
# [1] = target: Sarbecovirus (SARS-CoV-2 / SARS-CoV) spike C-terminal hepta-peptide, wild type (UniProt P0DTC2); details: pH 7.5; 25°C; 150 mM NaCl
# [2] = target: Sarbecovirus (SARS-CoV-2 / SARS-CoV) spike C-terminal hepta-peptide, wild type (UniProt P0DTC2); details: pH 6.5; 25°C; 150 mM NaCl
# [3] = target: Sarbecovirus (SARS-CoV-2 / SARS-CoV) spike C-terminal hepta-peptide, wild type (UniProt P0DTC2); details: pH 7.5; 25°C; 150 mM NaCl; remark: listed apart in the source
substance,measurement,setting,value
Coatomer subunit alpha N-terminal WD40 domain (alphaCOPI-WD40) L181K;L185K;I192K;L196K;F197K,equilibrium KD,[1],4.17 ± 0.04 µM
same,equilibrium KD,[2],1.40 ± 0.15 µM
same,kinetic KD,[3],2.75 ± 0.09 µM
